Assay: soluble fraction after stress (log2 fold change); higher = more stays soluble; pooled small domains, quantitative proteomics
Conditions: stress: pH 4
Procedure, shortened: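 Pooled custom libraries of small protein domains were stressed at pH 4 and then measured by high-throughput quantitative proteomics. The fold change in the amount of each domain that stays soluble after the acid stress serves as a measure of aggregation propensity. Fold changes are given on a log2 scale, and higher values mean more of the domain stayed soluble.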

Sequence	soluble fraction (log2)
HMDRMMQPETWGRVYQWITDDPQVPDREEVLTLIKYHYGDFGKLMKLLHRLNEGKAWTYLSEHIFPRM	-0.698
HMDDLFGNAIEMFNNQRYDMTYELLVQLLSETPNNEKAWQLLADTKFMLGDYDDALHIVGKAAK	-1.36
HMSRFLEGILQRRAGGKNYFVPDDGSNPIFIADRNSAGAANGDRVRIAQFARRPRSGPEGEVVEILKRAK	0.153
HMNTLTKEDIQKAIDVIPIDFKSVVILNLVEGFSYKETAEILEIPIGTVMSRLHRGRKILQKLLWEYSSSK	-0.557
HMSESAGKALDILFYLARVEDEVSLARLSKETGMNKATALRYLAVLESWGVVEKRPSGWSLGLSLFELGSK	-1.03
HMNAQLTTQEAADLLNVSRPHLVKLLEDGELPFLRTGKHRRVRLADLLQFKNAREQASVQAMDELSRQAQ	-0.177
HMGQAEEVRYSTFLDEVRNGRIEQVVLQGEHIIGTRKDKTVFSVFNPETDYTALIGTLSKSGVTIEGRP	0.103
HMTSMNNTEELIDMANKIIDNNPNMVLKYKEGRNVLDFFIGQVMKETKGRANPSATSKIFKDLLEK	0.171
HMRDKTMLGNVIRTRRKKMNLTLEELSKQVGITSGGLSQIERGLVDPSLSVLRRISRALNLPMNVMFSE	≥ 0.43
HMPKIPRLTLTETAGIMGVSQRALALAIQQGMYSWAQALPGRNKKRPIYFINAITFAKAQGIDLEEYK	-0.529
HMERRDEINSVVSRYVSAITEGKYDLAEVDETGKLRVQTEGREVLPEALSRGTLEQFYFAFRMAVGSI	-0.779
HMLPSELLAQQRIVVQPGHNLWRIARATYGRGARYTVIYQANREQIADPNRIFPGQVFALPAA	-0.227
HMNSVAASLREISIKVSGTEDADKVSRLQELSQMPKLDASGIAEANTLLEQLRAKYGDLGLSVDTARGRIV	0.0674
HMEDNYYENKINYLFGYLDEADKEISVNSILDFHLAHRTNPEFVFEPKKNTNPLIWKYLSNSNLLY	0.0187
HMDFYVILGVDRAASLSDVKRAYRRLARKHHPDINPGDPESDAFFMRVTEAYETLVDPDRRQEYDEHG	-1.34
HMDNWYIAFNSFLSQNKLTAKNVSELTGLSKPTIDSYKQGKRKPTDENMQIIKDKLGFNISEILYN	-0.576
HMADRDKYIIMGQQLLRAAFEHFGKKATDKALENAANKLRISDVPELYARLGSAELQPRDVINVIFPD	-0.0521
HMDSIDIDAETKSLGPNAPQIIKGIKEWGQGLVAKGVWSDQDFEEFKVFAATANGINALNKVRKFY	-0.192
HMTITDDETHKVLEEGASRMSEGLTFRDLVDLDRLHLTARGVIQKVLNENRIDADVDTIANMAQKLVARVS	-0.567
HMQVVVEKSKEKVIISGNQYYIHIVKKGETAFSIAKAYGITVDELVKNNPSAATVLKEGQALRIPVVE	0.22
HMHIMINPDQLSPEQIQSIRTWAEEGLDLNAIQKRLHEDLNIKLTFMDTRFLLQDLDIRIRQPEPEPEAEQ	-0.67
HMSVDDYLKFSGSGTYWNTQDRGKTYLVNGQQRPLRDKEYLPDVMHRHVIDFITKHRDRPFYIYYSM	-0.0438
HMIILDASASRAIGNGTIEETKWDFGNGESSTNRGGPIVERQIYANQAAYILKLSMKTNDGQLFTKEIQLL	-0.0529
HMKKPANLISEDRMVEVLYDVIIINTAKGVNKQLLQNNINNPLNYIYRSHGIDSLQFAESNAYYTS	-0.798
HMEGTAAAVALKGLMEQSGVDLREVMAAVESRGYYPKGTPFENYDPAFVSGVLVGAWDQVYKMILDQRPIP	-1.1

Sequence	soluble fraction (log2)
HMTKMTPNRQLVLSVLQSSGKPLSAYELLDRLREQGTQWQPPTAYRALDYLVEQGLAHYLQSIQKYV	-0.317
HMSSVHTMEVKSTTQIKVLDENKNLSSYYSMKNPVSFNYRLFFLNQDELKKLQEDLKTNNDIQSIDIKYA	-0.944
HMGTLSLLVQKLMAVGLEGAKASEIVERFDRERIERQINALPSRKIKSSRTGFLIRAIELDIPVE	-1.31
HMDVMNEIQQKAFDIYIQSASLKNDFTPISERALAKKLHDMGLKSSMSAIGRWKKKFGWVQSLQNKVTLA	-0.183
HMTETEIVIGGKYRHYKGGEYELVSIVKHSETLEELVIYKSLSTGEMWARPKSLFVGLVDGQPRYTL	-1.39
HMSPREDQQSRKQHILEAAAVLFAERGYYKTTTADVARAVGVTQPYVFHFFKSKEELYLAVL	0.219
HMPNFDPSYILDFGDVIQLQLVGQKNQILEIPILRDGSVNLPDIGKIFLSGMSLEEATKIIKDTYSA	-1.28
HMTHPQVEAYLDDLARMLADIDPGERDDILASVREHLDAEIAAGHGSDAVVNATLLRLGPPEQVAAAARTN	-0.899
HMGGRTITVGISENMTVKDIAQMLEEKGLIEDARLFVVQELLSAYHKEIKPGIYDLSTDMTAAQMLEIMS	-1.32
HMSTEAVVMSSSVSVKSSPDKASTDLFVLHEGTKVRTVSELGDWREIVIADGKKGWVEARTIET	0.151
HMRSDHVFTSHLARRDKYISELESLSDSARDDHIQTIKEEDEYLLKYRRTRNLFGIPLNDEMKQFEPFNY	-1.16
HMWSNTAVIDRIRQLHEEGQPISSQSVQVNHKSLYMAAIKRFRGWKRAVEAAGIDYRQIRLR	0.404
HMNEPITIALREAEEAANKILNEGVHSVELSPQNGYVRRLQHELIARYGLTSASRGSDPSRRVSVGAN	-0.273
HMIKRITDEQHPVDVDRLLVVTFTNAAASEMRERIGDAIEAALEKDPYNQHLQRQLTLVHNAQITTIDS	0.00503
HMEITGKYKAKEDIKLKVIPLISSLDLQDIKQNTELEVKDTMNNWAYVTVQEKQGWVVLEKIEKVE	-1.07
HMFHDPTMEETLINLKGITNEVLSLLSSSKIKKLEDLAEMSVPELRDIVENISDEEASALIMEARKPWF	-1.81
HMEPEVEITYFKPDERKAGGAYVTVTGAVIKVDDFERLITMQDGTKIPMDDILSIDGELFLS	-1.08
HMPALATKDSVLDGRAEVVSYVRDTSVFYLRVRVPQKQGYRSRRIDGVSTLPEAITKALDTYMDLGT	-1.02
HMEGSVTVMVNGESVTMTGKQNYIFVDVFDWYSFDLSAGKGRAIATLVNGKEAEFSQPLANGDNIELYWKE	-1.42
HMRVKLVKKSILASGGENIRVDKFLSNHILTMTRTQIKKLFLDGLVQVNKSFVKPGSILKGNEIITFSIPE	-0.412
HMIQHFARKRRQLELAVQRLSGRMAETNGQVTADMQRLIQQVKALVAELSHVFSRAYLRRVLGGVALVIGS	-0.145
HMANHIAAIHVLKSKLQMSDSDYRVLITGLTQKASTKDMSDIERQRVRDHMQGLAERMGVVK	0.0887
HMGGEHPIPEDWAVNEANYEHGAKFYGYTRAHVDAEAQAFRDQYAANGKKYVDWDAHFRTFMRWQNERRYG	-0.416
HMDTMINLIGLNLKKAKKELSNLGVNVKKVRYKKSSVYDEGVVIDQSIEAGRNIKNGDFITITVSSGKA	-0.0745
HMTVLVPNLTGKTLLEAEILLDQAGLKKGDVYSESNKNVPKDHIIRQKPAPNTKIQKGATIDIYRSLGPE	-0.0793

Sequence	soluble fraction (log2)
HMRMETRILTADESGIRLDAFLASRLAVSRSLAASLIDDGNVTLNGTVPKKKTAVNVGDILEVAMP	0.22
HMFIKVEVPDLTGMTLTEVRKALEEKNLKMGDIRPAGQTSLVAKVINQSPQAKMVVDEYSEVSIQFEE	0.166
HMDSTLDLVATQGGRLDQVLAEMIPEHSRNRLQHWIKAGRVLVDGQPVLEPKHKIYGGEDLAVRVD	0.123
HMGSIDYLVGSRLRQYRRLRGYSLIEFSAMLHRSKSAISKYERGEVSIDLRTLNEMARLLDIPLSGLLL	-0.283
HMDDIHTFVYETETPFDPQKLDRYIGSLTAVYGQDMLRYKGILYFAGVDRRVVFQGVHMLAV	-0.353
HMINLRTALNNAGVMQKELSDILYMTPQDVNRRFSGVTKWKPLEKRAIMQFLEDRGFEYTEEQLF	-0.883
HMTEWSIHEVAQRSGVTTRTLRHYDAIGILSPTRTGANGYRYYGPEALVRLQRILLLRDLGLALSDIAE	-1.66
HMDIYLTAFKTTSNQVTLNGIARSDLIISEFMRDIRDAKLFGEPVLQVIQNKNLNNVQARVFELVVPL	-0.399
HMGNLVDGINKKLTHVRDSLPEGYTLDEFKSAFQQQYPAAYDAYEGDKGKQFDKWLGNVIQSLPKK	0.137
HMKIVQDIAFSDFLNEVEKDNVLDVNIKGDLINGNLADGRKFKTYTPYDPNLIEKLSNKNVTINVEPYN	0.00986
HMDIHSEEYILGQNIRKYRLRLGWSQADLSNAVDIDRADISKYENGAKGIMSSTLLRKFAKALGVSMDALM	0.0187
HMGHASPGNREALQFALERHQARAAEFAEKAGLSIANASTKFKQLWEQGFLMRNESVADSGGVEFLYQR	-0.0683
HMGEFVQLKNRTGSVIEAKILNYQNGKVKLQRKDGVIFVVPISIFDRMSSSIIENKAKEMDSF	0.255
HMTPQVALNDTETAIYEKMKQEKQMLLGELRAQFDISNKLWDTSLKTLTKNQLLAVSKEDDLLFVKL	-0.437
HMSNSMISKDKAMSIALAKVSGATSSNIYIELEKDDGRYTYEGEINFNNKEYEFEIDAYTGNILKWEVDSI	-0.0257
HMSALAQDGDLVQLQGAGYKSHILRLKAGEVLQTHRGVIQHDAVIGQPWGARLQSHTGSPFYLFQPGLADL	-0.187
HMGKDIYLTSGWVEKFDELNEFSNSVDNYDRLNQFGMYENAIIGDTGVIKITDEMIFDLYEKIQVPVEAGP	-1.04
HMWDRFGELDSAEEINRIAAAELREGDIDALKVLAEENGLDKDDVEDYIDRLIDELTTPELAAIGKLDV	-0.0336
HMLRTLSTSEFAEAIGISESSARRLADSGDLRIRRTKGGHRKIPAEEAIRYAREIQATVVRPDLLGLST	-0.151
HMNTEVDKVLLRSGEAYFGEVLLRNDELVMMKTQDGARFQFPVSEIKSIEKVSVADALRHINS	0.162
HMENVVESIYNKMVESITNGQWAAGSKIPTENELAKTYQVSRSSVRQAISRLKALGLLESRQGSGTVIKK	0.178
HMRDITAQSNASELYFEERDLEAFIEKLERLYPEIRYVNRLMIHSWGQQVVRFFDPDGNLIEVGTP	-1.28
HMPMDDETWDALSLFAYKRYARENGWPLMIGAEALRDTFASYFPLDSSTWQDRSSHYLTYQDGIYTRT	-0.753
HMISKRFQVDEENSNNRVDIFLANNLDSISRGIVQQLILDGKVLVNGETVKRNHLLKTNDEVDISFEI	0.0466
HMIGRIKGQLIEKKSDSVVIDVHGIGYVVYVTEKTARSLTLGDQSRDISLYSELLVKEDLLQLVGFI	-0.0095

— the domain aggregation screens of Martell et al. (2025)
